Experimental data as given in patent publication US20160003844A1 (MOGAM BIOTHECHNOLOGY INSTITUTE, published 2016).

B1: HSA50 (other)
VH: EVQLVESGGGLVQPGGSLRLSCAASGFTFSSYAMGWVRQAPGKGPEVVSLISGSGGSTWYDDSVKGRFTISRDNSKNTLYLQMNSLRAEDTAVYYCASHQFTTTQWGQGTLVTVSS
notes: Human VH domain antibody (single heavy chain variable domain)
B2: HSA9 (other)
VH: EVQLVESGGGLVQPGGSLRLSCAASGFTFSSYAMGWVRQAPGKGPEVVSLISGSGGSTWYDDSVKGRFTISRDNSKNTLYLQMNSLRAEDTAVYYCASHQWSRQQWGQGTLVTVSS
notes: Human VH domain antibody (single heavy chain variable domain) selected from a CDR-engineered library; its FR2 matches the MG8-4 scaffold
B3: HSA11 (other)
VH: EVQLVESGGGLVQPGGSLRLSCAASGFTFSSYAMGWVRQAPGKGPEVVSLISGSGGSTWYDDSVKGRFTISRDNSKNTLYLQMNSLRAEDTAVYYCASHKFRNLKWGQGTLVTVSS
notes: as for B1
B4: HER3#62 (other)
VH: EVQLVESGGGLVQPGGSLRLSCAASGFTFSSYAMGWVRQAPGKGPEVVSLISGSGGSTWYDDSVKGRFTISRDNSKNTLYLQMNSLRAEDTAVYYCASHPPRVDTWGQGTLVTVSS
notes: as for B1
B5: HER3#723 (other)
VH: EVQLVESGGGLVQPGGSLRLSCAASGFTFYNYPMGWVRQAPGKGPEVVSLISGSGGSTWYDDSVKGRFTISRDNSKNTLYLQMNSLRAENTAVYYCASHPVSLLFWGQGTLVTVSS
notes: Human VH domain antibody (single heavy chain variable domain), FR3 reads ...SLRAEN TAVYYC (N where the other clones have D)
B6: HER3#748 (other)
VH: EVQLVESGGGLVQPGGSLRLSCAASGFTFYSLMMGWVRQAPGKGPEVVSLISGSGGSTWYDDSVKGRFTISRDNSKNTLYLQMNSLRAEDTAVYYCASRHPPGLMWGQGTLVTVSS
notes: as for B1

Molecular target: T1, human serum albumin (human, UniProt P02768 25-609)
T1 construct: also called HAS; HSA
T1 sequence (P02768 25-609 limits assumed): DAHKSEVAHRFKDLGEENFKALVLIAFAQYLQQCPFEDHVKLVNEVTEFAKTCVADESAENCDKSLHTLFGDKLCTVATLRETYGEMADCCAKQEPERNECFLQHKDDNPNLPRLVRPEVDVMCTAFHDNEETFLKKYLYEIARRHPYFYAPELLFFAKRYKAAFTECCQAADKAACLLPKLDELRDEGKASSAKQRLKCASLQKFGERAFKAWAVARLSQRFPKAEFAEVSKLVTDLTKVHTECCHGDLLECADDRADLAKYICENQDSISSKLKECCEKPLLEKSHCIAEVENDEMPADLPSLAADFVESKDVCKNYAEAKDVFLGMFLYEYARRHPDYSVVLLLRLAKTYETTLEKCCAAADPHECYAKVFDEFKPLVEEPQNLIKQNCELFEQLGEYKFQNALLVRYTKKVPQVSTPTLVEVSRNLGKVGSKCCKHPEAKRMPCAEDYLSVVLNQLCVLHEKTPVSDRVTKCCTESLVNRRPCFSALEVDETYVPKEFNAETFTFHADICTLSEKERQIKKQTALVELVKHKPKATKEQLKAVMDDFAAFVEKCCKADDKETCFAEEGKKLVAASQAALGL
Assay: method not stated; 'Affinity (nM)'

Going from B1 to B2, the Kd falls from 7.8 nM to 1.7 nM (4.6-fold).

For B3, the Kd was 1.2 nM.

Molecular target: T2, Human Epidermal Growth Factor Receptor-3 (human, UniProt P21860 20-643, limits assumed)
T2 construct: also called HER3
T2 sequence (P21860 20-643 limits assumed): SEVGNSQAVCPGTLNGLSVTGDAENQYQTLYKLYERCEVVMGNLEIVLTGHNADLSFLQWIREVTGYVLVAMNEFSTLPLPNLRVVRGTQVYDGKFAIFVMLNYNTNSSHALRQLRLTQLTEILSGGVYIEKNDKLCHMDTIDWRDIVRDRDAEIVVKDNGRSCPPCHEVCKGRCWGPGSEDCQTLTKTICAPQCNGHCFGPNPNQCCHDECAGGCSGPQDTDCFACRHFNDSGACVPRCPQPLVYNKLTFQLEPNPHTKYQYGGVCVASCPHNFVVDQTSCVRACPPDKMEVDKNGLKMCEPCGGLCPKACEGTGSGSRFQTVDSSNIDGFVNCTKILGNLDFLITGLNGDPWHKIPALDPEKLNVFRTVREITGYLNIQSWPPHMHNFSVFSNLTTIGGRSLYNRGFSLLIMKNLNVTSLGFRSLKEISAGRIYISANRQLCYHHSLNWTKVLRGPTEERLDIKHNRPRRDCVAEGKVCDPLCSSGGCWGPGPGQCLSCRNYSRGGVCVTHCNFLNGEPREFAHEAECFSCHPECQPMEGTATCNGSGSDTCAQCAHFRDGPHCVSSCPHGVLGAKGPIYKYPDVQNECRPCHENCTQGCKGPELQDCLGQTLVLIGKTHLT
Assay: method not stated; 'Affinity (nM)'

First: B4
Second: B5
The Kd of the first is 15-fold lower: 1.8 nM for the first, 27.4 nM for the second.

For B6, the Kd was 20 nM.
